Test results from patent US20220306739A1 (Janssen / Centocor, published 2022).
Read-outs that look alike come from different tables or passages of the source.

Columns and labels:
[1] = biological target: T1, B cell maturation antigen (BCMA) (UniProt Q02223 1-184, limits assumed); assay: cell-based or functional assay
T1 sequence (looked up): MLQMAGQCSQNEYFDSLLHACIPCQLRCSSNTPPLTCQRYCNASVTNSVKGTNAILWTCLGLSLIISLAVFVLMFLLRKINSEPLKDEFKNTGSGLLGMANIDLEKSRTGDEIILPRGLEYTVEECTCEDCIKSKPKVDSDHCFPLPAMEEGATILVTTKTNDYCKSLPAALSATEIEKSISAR

[2] = biological target: T1, B cell maturation antigen (BCMA); assay: cell-based or functional assay; remark: listed apart in the source
[3] = biological target: T1, B cell maturation antigen (BCMA); assay: cell-based or functional assay; remark: listed apart in the source
[4] = biological target: T1, B cell maturation antigen (BCMA); assay: cell-based or functional assay; remark: listed apart in the source
[5] = biological target: T1, B cell maturation antigen (BCMA); assay: cell-based or functional assay; remark: listed apart in the source
[6] = biological target: T2, CD33 (human, UniProt P20138 18-364); assay: FACS binding to MOLM-13 cells (CD33 high), MFI
T2 construct: whole, on cells; also called CD33 on MOLM-13, Kasumi-1, OCI-AML-3 and Kasumi-3 cells

[7] = biological target: T2, CD33; assay: FACS binding to Kasumi-1 cells (CD33 med), MFI
[8] = biological target: T2, CD33; assay: FACS binding to OCI-AML-3 cells (CD33 low), MFI
[9] = biological target: T3, CD123 (human, UniProt P26951 19-378); assay: flow cytometry, % Binding on Kasumi-3 cells (CD123 expressing cell line)
T3 construct: whole, on cells; also called IL3RA; interleukin-3 receptor
From the text: (§1) Cells were visualized on forward and sideward scatter and doublets were excluded. No secondary antibody control was used to establish background fluorescence and to gate on specific population. Background value was subtracted from main samples to get specific binding value.

[10] = biological target: T3, CD123; assay: flow cytometry, % binding of bispecific antibody to Kasumi-3 cells (CD123 expressing)
From the text: as §1

[11] = biological target: T3, CD123; assay: flow cytometry, % Binding on Kasumi-3 cells (TAA expressing cell line); same graph as FIG. 30A
From the text: as §1

[12] = biological target: T3, CD123; assay: flow cytometry, % Binding; graph under the Kasumi-3 histogram, Kasumi-3 cells by legend paragraph 83
From the text: as §1

T3 sequence (P26951 19-378): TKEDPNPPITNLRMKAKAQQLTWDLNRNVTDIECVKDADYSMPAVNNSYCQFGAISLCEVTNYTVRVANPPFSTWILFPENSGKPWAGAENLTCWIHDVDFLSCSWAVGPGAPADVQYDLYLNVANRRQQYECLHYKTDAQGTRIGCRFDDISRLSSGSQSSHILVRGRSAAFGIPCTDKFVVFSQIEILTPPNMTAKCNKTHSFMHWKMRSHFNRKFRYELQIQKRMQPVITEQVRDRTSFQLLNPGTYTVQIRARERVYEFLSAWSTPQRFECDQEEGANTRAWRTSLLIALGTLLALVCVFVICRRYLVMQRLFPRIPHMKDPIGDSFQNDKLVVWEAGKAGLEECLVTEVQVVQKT
T2 sequence (P20138 18-364): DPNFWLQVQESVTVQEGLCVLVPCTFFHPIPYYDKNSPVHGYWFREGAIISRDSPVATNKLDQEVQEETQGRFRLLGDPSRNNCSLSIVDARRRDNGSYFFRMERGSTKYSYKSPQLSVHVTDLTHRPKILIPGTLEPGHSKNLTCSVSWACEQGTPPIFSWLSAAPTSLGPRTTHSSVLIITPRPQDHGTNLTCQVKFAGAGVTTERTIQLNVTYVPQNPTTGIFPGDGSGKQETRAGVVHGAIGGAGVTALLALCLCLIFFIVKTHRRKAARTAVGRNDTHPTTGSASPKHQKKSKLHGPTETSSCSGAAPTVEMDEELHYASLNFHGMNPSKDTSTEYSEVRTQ

B1: anti-TRGV9/anti-BCMA bispecific antibody BCV9B106 (B3) (bispecific antibody, human IgG1, kappa, L234A L235A)
scFv-Fc: DIQMTQSPASLSASVGETVTITCRASENIHNYLAWYQQKQGKSPQLLVYNAKTLADGVPSRFSGSGSGTQYSLKINSLQPEDFGNYYCQHFWSYPLTFGAGTKLELKGGSEGKSSGSGSESKSTGGSQGQMQQSGAELVKPGASVKLSCKTSGFTFSSNYISWLKQKPGQSLEWIAWIHGGTGGIGYNQKFTGKAQLTVDTSSTTAYMQFSSLTTEDSAIYYCARRGYGAWFAYWGQGTLVTVSAEPKSSDKTHTCPPCPAPEAAGGPSVFLFPPKPKDTLMISRTPEVTCVVVSVSHEDPEVKFNWYVDGVEVHNAKTKPREEQYNSTYRVVSVLTVLHQDWLNGKEYKCKVSNKALPAPIEKTISKAKGQPREPQVYVYPPSREEMTKNQVSLTCLVKGFYPSDIAVEWESNGQPENNYKTTPPVLDSDGSFALVSKLTVDKSRWQQGNVFSCSVMHEALHNHYTQKSLSLSPGK
heavy: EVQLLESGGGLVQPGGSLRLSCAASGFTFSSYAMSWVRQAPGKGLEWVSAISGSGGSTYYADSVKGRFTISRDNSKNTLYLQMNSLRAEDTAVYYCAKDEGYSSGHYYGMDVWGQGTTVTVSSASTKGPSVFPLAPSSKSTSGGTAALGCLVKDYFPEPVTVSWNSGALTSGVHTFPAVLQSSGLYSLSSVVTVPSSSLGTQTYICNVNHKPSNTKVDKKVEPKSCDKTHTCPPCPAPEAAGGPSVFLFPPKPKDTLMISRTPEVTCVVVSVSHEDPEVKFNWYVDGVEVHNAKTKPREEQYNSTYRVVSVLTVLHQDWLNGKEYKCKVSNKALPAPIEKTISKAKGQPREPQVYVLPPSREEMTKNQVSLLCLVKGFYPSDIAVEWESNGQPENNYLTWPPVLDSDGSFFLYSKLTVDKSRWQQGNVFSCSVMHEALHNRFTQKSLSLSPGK
light: EIVLTQSPGTLSLSPGERATLSCRASQSISSSFLTWYQQKPGQAPRLLIYGASSRATGIPDRFSGGGSGTDFTLTISRLEPEDFAVYYCQHYGSSPMYTFGQGTKLEIKRTVAAPSVFIFPPSDEQLKSGTASVVCLLNNFYPREAKVQWKVDNALQSGNSQESVTEQDSKDSTYSLSSTLTLSKADYEKHKVYACEVTHQGLSSPVTKSFNRGEC
EC50 of γδ T-cell mediated cytotoxicity of H929 tumor cells [1]: 33.7 nM

B2: anti-TRGV9/anti-BCMA bispecific antibody (HC1: VG9B420-LH-scFv; HC2: BCMA-Fab (BCMB519-Fab)) (BCV9B71.001) (bispecific antibody, human IgG1, kappa, L234A L235A)
scFv: EIVMTQSPGTLSLSPGDRATLSCRASQSVASSYLAWYQQKPGQSPRLLIYGASSRATGIPDRFSGSGSGTDFTLTISRLEPEDFAVYYCQQYGSSPPYTFGQGTRLEIKGGSEGKSSGSGSESKSTGGSEVQLVESGGGLVKPGGSLRLSCSASGFTFSNYDMNWVRQAPGKGLEWVSSISSSSSYIYYADSVKGRFTISRDNAKNSLYLQMNSLRAEDTAVYHCARDVGVTTDYYYYGMDVWGQGTMVTVSSEPKSSDKTHTCPPCPAPEAAGGPSVFLFPPKPKDTLMISRTPEVTCVVVSVSHEDPEVKFNWYVDGVEVHNAKTKPREEQYNSTYRVVSVLTVLHQDWLNGKEYKCKVSNKALPAPIEKTISKAKGQPREPQVYVYPPSREEMTKNQVSLTCLVKGFYPSDIAVEWESNGQPENNYKTTPPVLDSDGSFALVSKLTVDKSRWQQGNVFSCSVMHEALHNHYTQKSLSLSPGK
heavy: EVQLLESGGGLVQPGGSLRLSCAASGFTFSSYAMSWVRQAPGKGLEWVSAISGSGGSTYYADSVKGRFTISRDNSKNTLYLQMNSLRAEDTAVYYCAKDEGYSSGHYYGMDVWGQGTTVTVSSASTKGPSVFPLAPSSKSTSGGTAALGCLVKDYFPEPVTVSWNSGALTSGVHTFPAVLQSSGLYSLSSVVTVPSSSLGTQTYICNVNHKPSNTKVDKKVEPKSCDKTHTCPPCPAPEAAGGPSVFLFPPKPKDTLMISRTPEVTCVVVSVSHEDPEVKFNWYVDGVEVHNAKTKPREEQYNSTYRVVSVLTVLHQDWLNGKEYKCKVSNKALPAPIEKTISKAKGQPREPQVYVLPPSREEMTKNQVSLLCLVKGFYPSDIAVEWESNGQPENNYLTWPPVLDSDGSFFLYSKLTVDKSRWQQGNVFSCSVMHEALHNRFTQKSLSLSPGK
light: B1 light
EC50 of γδ T-cell mediated cytotoxicity of H929 tumor cells [2]: 3.2 nM

B3: anti-TRGV9/anti-BCMA bispecific antibody (VG9SB10SC1087_P18_D08-Fab RF, BCMA-scFv (BCMB519-scFv)) (BCV9B100.001) (bispecific antibody, human IgG1, kappa, L234A L235A)
heavy: EVQLVQSGAEVKKPGSSVKVSCKASGDTFNNYAISWVRQAPGQGLEWMGGIIPFFGTPDYAQKFQGRVTITADKSTSTAYMELSGLRSEDTAVYYCARPGSGSPDYYYYDMDVWGQGTTVTVSSASTKGPSVFPLAPSSKSTSGGTAALGCLVKDYFPEPVTVSWNSGALTSGVHTFPAVLQSSGLYSLSSVVTVPSSSLGTQTYICNVNHKPSNTKVDKKVEPKSCDKTHTCPPCPAPEAAGGPSVFLFPPKPKDTLMISRTPEVTCVVVSVSHEDPEVKFNWYVDGVEVHNAKTKPREEQYNSTYRVVSVLTVLHQDWLNGKEYKCKVSNKALPAPIEKTISKAKGQPREPQVYVYPPSREEMTKNQVSLTCLVKGFYPSDIAVEWESNGQPENNYKTTPPVLDSDGSFALVSKLTVDKSRWQQGNVFSCSVMHEALHNRFTQKSLSLSPGK
light: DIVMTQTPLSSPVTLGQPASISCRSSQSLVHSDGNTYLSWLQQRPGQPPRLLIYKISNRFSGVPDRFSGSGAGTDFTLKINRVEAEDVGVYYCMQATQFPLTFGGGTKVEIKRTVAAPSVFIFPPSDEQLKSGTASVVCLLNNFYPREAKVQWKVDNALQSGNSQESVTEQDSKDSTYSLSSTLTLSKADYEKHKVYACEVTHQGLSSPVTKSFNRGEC
scFv: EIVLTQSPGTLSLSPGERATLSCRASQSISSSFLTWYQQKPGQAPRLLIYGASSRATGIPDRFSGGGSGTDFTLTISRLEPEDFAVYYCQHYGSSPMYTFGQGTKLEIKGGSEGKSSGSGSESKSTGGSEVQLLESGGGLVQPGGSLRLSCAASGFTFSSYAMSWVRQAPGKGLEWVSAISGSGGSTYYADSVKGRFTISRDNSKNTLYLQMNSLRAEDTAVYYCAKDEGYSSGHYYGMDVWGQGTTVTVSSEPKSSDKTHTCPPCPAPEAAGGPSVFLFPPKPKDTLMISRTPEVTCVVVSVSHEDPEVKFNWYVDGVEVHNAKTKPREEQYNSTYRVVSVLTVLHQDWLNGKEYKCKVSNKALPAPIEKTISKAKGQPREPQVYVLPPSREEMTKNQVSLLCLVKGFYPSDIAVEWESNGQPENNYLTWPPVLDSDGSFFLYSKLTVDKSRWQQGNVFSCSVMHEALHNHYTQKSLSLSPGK
EC50 of γδ T-cell mediated cytotoxicity of H929 tumor cells [3]: 0.81 nM

B4: anti-TRGV9/anti-BCMA bispecific antibody (VG9SB10SC1087_P18_C12-Fab RF, BCMA-scFv (BCMB519-scFv)) (BCV9B101.001) (bispecific antibody, human IgG1, kappa, L234A L235A)
heavy: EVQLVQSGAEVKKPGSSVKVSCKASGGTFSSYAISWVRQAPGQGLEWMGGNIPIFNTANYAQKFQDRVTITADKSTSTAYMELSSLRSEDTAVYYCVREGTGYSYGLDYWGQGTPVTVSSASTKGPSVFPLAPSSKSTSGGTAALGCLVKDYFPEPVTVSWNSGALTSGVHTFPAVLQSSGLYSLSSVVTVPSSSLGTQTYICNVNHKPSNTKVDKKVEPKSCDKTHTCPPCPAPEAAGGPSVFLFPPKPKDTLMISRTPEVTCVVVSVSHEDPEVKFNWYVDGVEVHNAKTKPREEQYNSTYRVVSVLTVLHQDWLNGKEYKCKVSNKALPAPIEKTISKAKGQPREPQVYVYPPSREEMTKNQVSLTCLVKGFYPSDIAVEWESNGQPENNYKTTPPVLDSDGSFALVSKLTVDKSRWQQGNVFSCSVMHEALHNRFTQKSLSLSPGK
light: EIVMTQSPLSSPVTLGQPASISCRSSQSLIHSDGNTYLSWLQQRPGQPPRLLIYKISNRFSGVPDRFSGSGAGTDFTLKISRVEAEDVGIYYCMQAKQFPITFGQGTKVDIKRTVAAPSVFIFPPSDEQLKSGTASVVCLLNNFYPREAKVQWKVDNALQSGNSQESVTEQDSKDSTYSLSSTLTLSKADYEKHKVYACEVTHQGLSSPVTKSFNRGEC
scFv: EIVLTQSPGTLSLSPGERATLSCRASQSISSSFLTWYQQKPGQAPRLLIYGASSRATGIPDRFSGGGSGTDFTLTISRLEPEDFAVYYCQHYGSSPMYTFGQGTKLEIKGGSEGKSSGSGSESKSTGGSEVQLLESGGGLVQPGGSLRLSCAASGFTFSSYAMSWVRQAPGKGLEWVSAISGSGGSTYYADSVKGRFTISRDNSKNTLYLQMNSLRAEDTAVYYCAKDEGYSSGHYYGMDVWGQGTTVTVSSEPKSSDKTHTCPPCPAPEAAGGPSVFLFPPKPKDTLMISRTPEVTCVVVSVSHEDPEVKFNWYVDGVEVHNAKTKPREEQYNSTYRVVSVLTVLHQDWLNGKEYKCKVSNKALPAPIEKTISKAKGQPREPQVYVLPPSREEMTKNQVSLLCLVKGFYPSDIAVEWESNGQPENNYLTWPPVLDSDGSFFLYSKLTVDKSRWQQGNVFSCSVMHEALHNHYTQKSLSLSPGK
EC50 of γδ T-cell mediated cytotoxicity of H929 tumor cells [4]: 2.65 nM

B5: anti-TRGV9/anti-BCMA bispecific antibody (VG9SB10SC1087_P19_C03-Fab RF, BCMA-scFv (BCMB519-scFv)) (BCV9B103.001) (bispecific antibody, human IgG1, kappa, L234A L235A)
heavy: QVQLQESGPGLVKPSQTLSLTCTVSGGSISSGGSYWSWIRQHPGKGLEWIGYIYNSGSTYYNPSLKSRVSMSVDTSKNQFSLKLSSVTAADTAVYYCARDSNYEWFFDLWGPGTLVTVSSASTKGPSVFPLAPSSKSTSGGTAALGCLVKDYFPEPVTVSWNSGALTSGVHTFPAVLQSSGLYSLSSVVTVPSSSLGTQTYICNVNHKPSNTKVDKKVEPKSCDKTHTCPPCPAPEAAGGPSVFLFPPKPKDTLMISRTPEVTCVVVSVSHEDPEVKFNWYVDGVEVHNAKTKPREEQYNSTYRVVSVLTVLHQDWLNGKEYKCKVSNKALPAPIEKTISKAKGQPREPQVYVYPPSREEMTKNQVSLTCLVKGFYPSDIAVEWESNGQPENNYKTTPPVLDSDGSFALVSKLTVDKSRWQQGNVFSCSVMHEALHNRFTQKSLSLSPGK
light: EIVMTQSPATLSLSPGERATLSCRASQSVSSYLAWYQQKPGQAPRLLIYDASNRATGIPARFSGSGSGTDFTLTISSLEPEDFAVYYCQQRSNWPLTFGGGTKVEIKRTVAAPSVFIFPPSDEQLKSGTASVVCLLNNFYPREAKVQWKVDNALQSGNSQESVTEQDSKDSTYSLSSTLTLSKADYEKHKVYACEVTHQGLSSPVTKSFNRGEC
scFv: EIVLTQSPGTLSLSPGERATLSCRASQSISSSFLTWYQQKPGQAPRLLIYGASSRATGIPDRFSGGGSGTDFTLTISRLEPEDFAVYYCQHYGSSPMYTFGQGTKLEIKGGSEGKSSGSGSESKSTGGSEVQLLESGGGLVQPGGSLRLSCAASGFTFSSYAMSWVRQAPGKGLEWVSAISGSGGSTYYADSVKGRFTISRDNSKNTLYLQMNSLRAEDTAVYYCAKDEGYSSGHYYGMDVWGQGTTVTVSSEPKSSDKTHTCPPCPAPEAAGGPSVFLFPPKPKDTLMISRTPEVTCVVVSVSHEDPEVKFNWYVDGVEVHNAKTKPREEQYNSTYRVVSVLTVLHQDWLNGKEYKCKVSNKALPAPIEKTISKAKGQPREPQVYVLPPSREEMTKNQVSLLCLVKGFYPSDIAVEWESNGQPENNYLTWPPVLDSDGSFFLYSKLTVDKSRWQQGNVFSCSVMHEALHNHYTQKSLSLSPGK
EC50 of γδ T-cell mediated cytotoxicity of H929 tumor cells [5]: 5.84 nM

B6: anti-CD33 antibody (clone C33B904) (antibody, V domains shown)
VH: EVQLVESGGGLVQPGRSLRLSCAASGFTFDDYAMHWVRQAPGKGLEWVSGIGWSGGSIVYADSVKGRFTISRDNAKNSLYLQMNSLRAEDTALYYCAKDSPYGDFFDYWGQGTLVTVSS
VL: DIVMTQSPDSLAVSLGERATINCKSSQTVFYSSNNKNYLAWYQQKPGQPPKLLISWASTRKSGVPDRFSGSGSGTDFTLTVSSLQAEDVAVYYCQHYYSTPYTFGQGTKLEIK
EC50 [6]: ~134 nM
EC50 [7]: 82.2 nM
EC50 [8]: 16.4 nM

B7: VG1 (anti-TRGV9/anti-CD123 bispecific antibody) (bispecific antibody, human IgG4 S228P, kappa, F234A L235A)
heavy 1: EVQLQQSGAELARPGASVKLSCKASGFTFTDHYINWVKQRTGQGLEWIGQIYPGDGNTYYNQKFKGKATLTADKSSSTAYMQLSSLTSEDSAVYFCAPNYGDYTIDFWGQGTSVTVSSASTKGPSVFPLAPCSRSTSESTAALGCLVKDYFPEPVTVSWNSGALTSGVHTFPAVLQSSGLYSLSSVVTVPSSSLGTKTYTCNVDHKPSNTKVDKRVESKYGPPCPPCPAPEAAGGPSVFLFPPKPKDTLMISRTPEVTCVVVDVSQEDPEVQFNWYVDGVEVHNAKTKPREEQFNSTYRVVSVLTVLHQDWLNGKEYKCKVSNKGLPSSIEKTISKAKGQPREPQVYTLPPSQEEMTKNQVSLSCAVKGFYPSDIAVEWESNGQPENNYKTTPPVLDSDGSFFLVSRLTVDKSRWQEGNVFSCSVMHEALHNRFTQKSLSLSLGK
light 1: DIVMSQSPSSLAVSVGEKVTMSCKSSQSLLYSSNQKNYLAWYQQKPGQSPKLLIYWASTRESGVPDRFTGSGSGTDFTLTISSVKAEDLAVYYCQQYYRYHTFGTGTKLEIKRTVAAPSVFIFPPSDEQLKSGTASVVCLLNNFYPREAKVQWKVDNALQSGNSQESVTEQDSKDSTYSLSSTLTLSKADYEKHKVYACEVTHQGLSSPVTKSFNRGEC
heavy 2: EVQLVQSGAEVKKPGESLKISCKGSGYSFTSYWISWVRQMPGKGLEWMGIIDPSDSDTRYSPSFQGQVTISADKSISTAYLQWSSLKASDTAMYYCARGDGSTDLDYWGQGTLVTVSSASTKGPSVFPLAPCSRSTSESTAALGCLVKDYFPEPVTVSWNSGALTSGVHTFPAVLQSSGLYSLSSVVTVPSSSLGTKTYTCNVDHKPSNTKVDKRVESKYGPPCPPCPAPEAAGGPSVFLFPPKPKDTLMISRTPEVTCVVVDVSQEDPEVQFNWYVDGVEVHNAKTKPREEQFNSTYRVVSVLTVLHQDWLNGKEYKCKVSNKGLPSSIEKTISKAKGQPREPQVYTLPPSQEEMTKNQVSLWCLVKGFYPSDIAVEWESNGQPENNYKTTPPVLDSDGSFFLYSRLTVDKSRWQEGNVFSCSVMHEALHNHYTQKSLSLSLGK
light 2: EIVLTQSPGTLSLSPGERATLSCRASQSVSSSYLAWYQQKPGQAPRLLIYGASSRATGIPDRFSGSGSGTDFTLTISRLEPEDFAVYYCQQDYGFPWTFGQGTKVEIKRTVAAPSVFIFPPSDEQLKSGTASVVCLLNNFYPREAKVQWKVDNALQSGNSQESVTEQDSKDSTYSLSSTLTLSKADYEKHKVYACEVTHQGLSSPVTKSFNRGEC
notes: Full-length human IgG4 in knob-into-hole format; also called anti-TRGV9×CD123; Vγ9/CD123 bispecific
EC50 [9]: 0.43 nM
EC50 [10]: 0.354 nM
EC50 (read off the curve) [10]: ~0.05 µg/mL
EC50 [11]: 0.43 nM
EC50 [12]: 0.354 nM
